# Data from patent publication US10323078B2, “Isolated peptides and fragments thereof from fibrinogen for use as drugs, particularly in skin inflammatory diseases” (Universite Paris Descartes, priority 2015, dated 2019).
# Key:
# [1] = test system: NHDK cells; experiment: IL-1β production by P. acnes-stimulated NHDK (ELISA); type: cell-based, human; settings: P. acnes 6919, set I, bacteria first pretreated, 0.87 to 7 μM
# Procedure: (§1) For experiences of stimulation with P. acnes, cells were incubated with the P. acnes suspension adjusted at the appropriate concentration, pre-treated for 1 h at 37° C. or not with fibrinogen recombinant peptides Fg1 and Fg2 at the concentrations 0.87, 1.75, 3.5 or 7 μM for the desired period of time at 37° C. in 5% CO2.
# (§2) Human IL-1ß, IL-8, IL-12, hBD-2, and TNF-α protein concentration was measured in the supernatants of stimulated cells using various ELISA Set kits (Ready-Set-Go kit from eBioscience for acne experiments, and for psoriasis experiments the Duo set IL-8 kit from R&D Systems and the BD-2 Human Development (hBD-2) from Peprotech) according to the manufacturer's instructions. We used serial dilutions of recombinant human IL-1ß, IL-8, IL-12 and TNF-α for standard curve. The optical density was determined at 450 nm at a wavelength correction of 540 nm.
# (§3) To assess the efficacy of Fg1 recombinant peptide, the production of O2^∘− and H2O2 by HaCaT cells NHDK, THP-1, MRC5 and HDF stimulated by pretreated P. acnes strains 6919, RON and PIE was measured. The amount of ROS produced was compared to that produced by the stimulated cells with untreated bacteria. Production baseline was obtained by measuring ROS on unstimulated cells. The production of IL-1ß, IL-8, IL-12 and TNF-α was also measured in all conditions cited above. […]
# [2] = test system: P. acnes RON strain; experiment: Adhesion assay, biotinylated P. acnes binding to fibroblasts (HDF); type: cell-based, Propionibacterium acnes; settings: bacteria pretreated 0.87 to 7 μM, 1 h at 37° C.
# Procedure: The bacterial suspension was adjusted at 600 nm to the desired concentration, pretreated with peptides Fg1 and Fg2 at the final concentration ranging from 0.87 to 7 μM for 1 h at 37° C. and deposited on the previously saturated cells with a solution of PBS SVF 2% for 2 h. After incubation for 1 h at 37° C., unbound bacteria are removed by 3 washes with PBS and fixed bacteria are detected by a streptavidin-peroxidase solution of 0.5 μg/ml for 30 min.
# Whole P. acnes bacteria are labelled by biotinylation, pre-treated or not with the peptides and contacted with the various cell lines. After removal of the unfixed bacteria, the adhesion activity was measured spectrophotometrically by using the streptavidin-peroxidase conjugate and a chromogenic substrate.
# The ability of P. acnes strains 6919, RON and PIE was tested at 3 concentrations to adhere to various cells lines. It has been shown that the strains of P. acnes tested bound to the three kind of cell lines tested (keratinocytes, monocytes and fibroblast) with a maximum adhesion strength found for keratinocytes (FIG. 11). Knowing that P. acnes is able to recognize fibrinogen, it was used human and bovine whole fibrinogen to compete the interaction between the bacteria and the target cell. […] Then, the ability Fg1 to inhibit the adhesion of bacteria and RON PIE was evaluated on the 3 main types cell. […]
# [3] = test system: ThP1 cells; experiment: O2°− production by P. acnes-stimulated ThP1; type: cell-based, human; settings: 0.87 to 7 μM
# Procedure: as §1
# All cells lines (5·10^4 to 10^5 cells/well) were seeded in 96-well plates (Corning Costar, Brumath, France) and treated as previously described. After stimulation, cells were washed three times in PBS and incubated with 100 μl per wells of 5 μM DHE (for determination of O2^●−) or 5 μM H2-DCFDA (for determination of H2O2) for 30 min as described previously and fluorescence intensity was recorded every hour over a period of 5 h. Fluorescence excitation/emission maxima were for DHE: 480/610 nm and for H2-DCFDA: 507/525 nm. At the end of the experiment, the number of adherent cells was evaluated by the crystal violet assay as described below. O2^●−, and H2O2 were assayed by spectrofluorimetry on a Fusion spectrofluorimeter (PackardBell, Paris, France). Levels of ROS were calculated in each sample as follows: reactive oxygen species rate (arbitrary units/min/10^6 cells)=(fluorescence intensity [arbitrary units] at T5h—fluorescence intensity [arbitrary units] at To/300 minutes/number of adherent cells as measured by the crystal violet assay, and were expressed as arbitrary unit (A.U.).
# To assess the efficacy of Fg1 recombinant peptide, the production of O2^∘− and H2O2 by HaCaT cells NHDK, THP-1, MRC5 and HDF stimulated by pretreated P. acnes strains 6919, RON and PIE was measured. The amount of ROS produced was compared to that produced by the stimulated cells with untreated bacteria. Production baseline was obtained by measuring ROS on unstimulated cells. The production of IL-1ß, IL-8, IL-12 and TNF-α was also measured in all conditions cited above. The measurement of the production of ROS is performed by spectrofluorimetry in the presence of specific fluorochromes directly on the monolayer cell. Measurement of cytokine production was performed in parallel on the cell culture supernatant.
# Two sets of experiments were implemented: 1) The cells were stimulated (18 h at 37° C.) by P. acnes strains previously pretreated with Fg1 and Fg2 peptides at the final concentrations ranging from 0.87 to 7 μM for 1 h at 37° C.; and 2) The cells were pretreated first with Fg1 and Fg2 peptides at the final concentrations ranging from 0.87 to 7 μM for 24 h at 37° C. and stimulated (18 h at 37° C.) by P. acnes strains.
# [4] = test system: MRC5 cells; experiment: H2O2 production by P. acnes-stimulated MRC5; type: cell-based, human; settings: bacteria first pretreated, 0.87 to 7 μM
# [5] = test system: NHDK cells; experiment: IL-12 production by P. acnes-stimulated NHDK (ELISA); type: cell-based, human; settings: P. acnes RON, set I, bacteria first pretreated, 0.87 to 7 μM
# Procedure: as §1, §2, §3
molecule,measurement,setting,value
"MKRMVSWSFHKLKTMKHLLLLLLCVFLVKSQGVNDNEEGFFSARGHRPLDKKREEAPSLRPAPPPISGGGYRARPAKAAATQKKVERKAPDAGGCLHADPDLGVLC (protein, GST fusion; fragment Fg1, fragment of Bß chain of human fibrinogen having 106 amino acids; recombinant GST-fused peptide expressed in E. coli) MKRMVSWSFHKLKTMKHLLLLLLCVFLVKSQGVNDNEEGFFSARGHRPLDKKREEAPSLRPAPPPISGGGRARPAKAAATQKKVERKAPDAGGCLHADPDLGVLCMKRMVSWSFHKLKTMKHLLLLLLCVFLVKSQGVNDNEEGFFSARGHRPLDKKREEAPSLRPAPPPISGGGYRARPAKAAATQKKVERKAPDAGGCLHADPDLGVLC",Inhibition of Interleukine 1 beta (IL-1β) production,[1],pos
same,Inhibition of adhesion of P. acnes RON strain,[2],inhibits the adhesion of RON strain in a dose-dependent manner
same,Inhibition of Superoxide anion (O2°−) production,"[3]; P. acnes 6919, set I, bacteria first pretreated",pos
same,Inhibition of Superoxide anion (O2°−) production,"[3]; P. acnes 6919, set II, cells first pretreated",pos
same,Inhibition of Superoxide anion (O2°−) production,"[3]; P. acnes PIE, set I, bacteria first pretreated",pos
same,Inhibition of Superoxide anion (O2°−) production,"[3]; P. acnes PIE, set II, cells first pretreated",pos
same,Inhibition of Superoxide anion (O2°−) production,"[3]; P. acnes RON, set I, bacteria first pretreated",pos
same,Inhibition of Superoxide anion (O2°−) production,"[3]; P. acnes RON, set II, cells first pretreated",pos
same,Inhibition of Hydrogen peroxide (H2O2) production,"[4]; P. acnes 6919, set I",pos
same,Inhibition of Hydrogen peroxide (H2O2) production,"[4]; P. acnes PIE, set I",pos
same,Inhibition of Hydrogen peroxide (H2O2) production,"[4]; P. acnes RON, set I",pos
same,Inhibition of Interleukine 12 (IL-12) production,[5],pos
